# T1: Motif 1 Binding Protein (M1BP) (Drosophila (endogenous in 0-24 h Oregon …, UniProt Q9VHM3 1-418))
# T1 construct: endogenous protein in embryonic nuclear extract; source: endogenous, nuclear extract of 0-24 h Drosophila embryos
# T1 sequence (looked up): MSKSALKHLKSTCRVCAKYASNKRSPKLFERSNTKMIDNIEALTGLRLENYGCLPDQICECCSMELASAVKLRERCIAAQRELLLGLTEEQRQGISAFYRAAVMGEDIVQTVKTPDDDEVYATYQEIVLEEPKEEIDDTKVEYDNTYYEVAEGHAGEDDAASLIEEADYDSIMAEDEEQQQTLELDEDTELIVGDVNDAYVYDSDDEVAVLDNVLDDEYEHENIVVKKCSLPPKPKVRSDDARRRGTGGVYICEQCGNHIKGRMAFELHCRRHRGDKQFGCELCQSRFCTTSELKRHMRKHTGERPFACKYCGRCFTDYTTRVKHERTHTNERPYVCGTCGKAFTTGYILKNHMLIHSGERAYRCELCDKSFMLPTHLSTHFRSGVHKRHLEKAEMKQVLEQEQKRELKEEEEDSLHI
# T2: Modifier of mdg4 [Mod(mdg4)] 67.2 kDa isoform [Mod(mdg4)67.2] (Drosophila (endogenous in 0-24 h Oregon …, UniProt Q86B87 1-610))
# T2 construct: Modifier of mdg4, the 67.2 kDa isoform, Drosophila; The gene has many isoforms; the 67.2 kDa isoform is meant; to be checked; source: endogenous, nuclear extract of 0-24 h Drosophila embryos
# T2 sequence (looked up): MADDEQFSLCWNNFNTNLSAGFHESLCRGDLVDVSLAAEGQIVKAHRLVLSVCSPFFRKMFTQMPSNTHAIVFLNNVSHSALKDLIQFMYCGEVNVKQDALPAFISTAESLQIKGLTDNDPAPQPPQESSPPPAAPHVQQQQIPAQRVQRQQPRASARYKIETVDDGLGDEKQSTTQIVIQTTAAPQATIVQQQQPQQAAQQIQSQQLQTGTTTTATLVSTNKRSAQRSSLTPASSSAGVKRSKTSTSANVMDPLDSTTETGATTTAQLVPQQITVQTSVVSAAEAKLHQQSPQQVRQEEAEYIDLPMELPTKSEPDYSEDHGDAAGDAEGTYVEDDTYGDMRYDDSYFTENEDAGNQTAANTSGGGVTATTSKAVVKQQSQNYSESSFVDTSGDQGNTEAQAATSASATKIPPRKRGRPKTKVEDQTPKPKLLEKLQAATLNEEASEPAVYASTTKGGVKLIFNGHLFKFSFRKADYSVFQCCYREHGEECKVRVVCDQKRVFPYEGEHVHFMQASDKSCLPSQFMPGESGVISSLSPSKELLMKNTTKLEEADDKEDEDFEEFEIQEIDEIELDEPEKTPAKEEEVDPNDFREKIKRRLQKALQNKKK
# T3: Centrosomal protein 190 (CP190) (Drosophila (endogenous in 0-24 h Oregon …, UniProt Q24478 1-1096))
# T3 construct: Centrosomal protein 190 (CP190), universal insulator protein of Drosophila; endogenous protein in embryonic nuclear extract; source: endogenous, nuclear extract of 0-24 h Drosophila embryos
# T3 sequence (looked up): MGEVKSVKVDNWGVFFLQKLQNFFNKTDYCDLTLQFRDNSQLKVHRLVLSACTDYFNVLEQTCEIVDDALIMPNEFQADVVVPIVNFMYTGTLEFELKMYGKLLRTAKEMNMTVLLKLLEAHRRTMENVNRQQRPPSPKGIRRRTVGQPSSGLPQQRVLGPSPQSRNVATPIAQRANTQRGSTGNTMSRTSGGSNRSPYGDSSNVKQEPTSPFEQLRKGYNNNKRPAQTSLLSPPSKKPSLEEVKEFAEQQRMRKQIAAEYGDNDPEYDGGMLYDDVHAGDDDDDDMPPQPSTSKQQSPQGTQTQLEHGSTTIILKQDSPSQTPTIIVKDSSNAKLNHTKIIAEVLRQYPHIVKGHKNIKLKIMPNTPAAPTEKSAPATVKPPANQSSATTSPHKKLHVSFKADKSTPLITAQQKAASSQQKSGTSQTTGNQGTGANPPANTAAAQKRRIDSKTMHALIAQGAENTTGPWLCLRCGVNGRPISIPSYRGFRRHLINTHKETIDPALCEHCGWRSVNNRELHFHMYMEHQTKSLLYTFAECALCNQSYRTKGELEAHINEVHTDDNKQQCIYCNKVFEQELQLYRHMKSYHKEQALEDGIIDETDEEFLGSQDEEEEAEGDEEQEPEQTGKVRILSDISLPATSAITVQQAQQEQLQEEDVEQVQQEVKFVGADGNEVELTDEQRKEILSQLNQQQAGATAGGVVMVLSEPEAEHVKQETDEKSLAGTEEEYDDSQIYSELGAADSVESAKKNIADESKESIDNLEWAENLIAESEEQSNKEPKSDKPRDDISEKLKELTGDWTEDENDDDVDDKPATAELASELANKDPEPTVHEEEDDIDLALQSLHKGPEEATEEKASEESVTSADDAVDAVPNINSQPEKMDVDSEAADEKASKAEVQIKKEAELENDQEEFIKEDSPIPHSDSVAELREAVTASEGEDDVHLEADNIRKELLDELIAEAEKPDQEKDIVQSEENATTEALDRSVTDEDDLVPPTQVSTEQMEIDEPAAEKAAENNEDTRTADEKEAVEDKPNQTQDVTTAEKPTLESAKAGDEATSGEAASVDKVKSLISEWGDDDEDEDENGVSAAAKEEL
# B1: Suppressor of Hairy wing [Su(Hw)] (natural protein, UniProt P08970 1-941, looked up)
# chain: MSASKEGKEKKGKLLGVENISPPKDKRPATRMKLLNDVGAGEDSEASTTTTTSRTPSNKQEKRGSVAGSRIKILNEEILGTPKTEKRGATKSTAPAASTVKILNEKKTPSATVTAVETTKIKTSPSKRKKMEHYVLQAVKSENTKADTTVTVVTEEDDTIDFILADDEEVVPGRIENNNGQEIVVTEDDEDLGEDGDEDGEDSSGKGNSSQTKIKEIVEHVCGKCYKTFRRVQSLKKHLEFCRYDSGYHLRKADMLKNLEKIEKDAVVMEKKDICFCCSESYDTFHLGHINCPDCPKSFKTQTSYERHIFITHSEFSDFPCSICNANLRSEALLALHEEQHKSRGKPYACKICGKDFTRSYHLKRHQKYSSCSSNETDTMSCKVCDRVFYRLDNLRSHLKQHLGTQVVKKPEYMCHTCKNCFYSLSTLNIHIRTHTGEKPFDCDLCDKKFSALVALKKHRRYHTGEKPYSCTVCNQAFAVKEVLNRHMKRHTGERPHKCDECGKSFIQATQLRTHSKTHIRPFPCEQCDEKFKTEKQLERHVKTHSRTKRPVFSCAECKRNFRTPALLKEHMDEGKHSPKQQRSSMRSAVKIMERTDCAICDKNFDSSDTLRRHIRTVHECDPDDIFGVEPHPSKRAKKDIESEEVVPVALNTSAGSLISSQTDGNGVVVREFLVDEGDGAAQTITLENETYTILPLDGAIEGEQLTDEAGVKPEAKKEEAQVSPVVKKEQRKSLAASLAAAIADNLEESCSEDDFSGEILTEEDIKLKENVGKLIDMLVDPPILKKYGWPNAPEETVLCKVIENCGHDLTKGGENYAELDYGSRMREYCKLLFTVVIHNDSIKSLLNNFPIDDVIEYVLGDEDQDEGGLDKDNESHSGDEEAVSVTGETKTNEIREKPEKKEVSAKSEKKEIVGKAVDKDNSEEVVRENKKKPVGEQEKA
# notes: endogenous protein in embryonic nuclear extract; source: endogenous, nuclear extract of 0-24 h Drosophila embryos
# Key:
# Assay in all cases: co-IP; 500 ug nuclear extract of 0-24 h Drosophila embryos incubated overnight at 4 C with antiserum (anti-Su(Hw), anti-CP190, anti-Mod(mdg4)67.2 or anti-M1BP; normal serum as control) cross-linked to Protein A or G Sepharose; washed twice with HBSMT and once with HBSM; western blotting; efficiency as percent of total input protein
# Settings in all cases: partners not purified
# [1] = target: T1, Motif 1 Binding Protein (M1BP)
# [2] = target: T2, Modifier of mdg4 [Mod(mdg4)] 67.2 kDa …
# [3] = target: T3, Centrosomal protein 190 (CP190)
binder,measurement,setting,value
B1,percent of total protein immunoprecipitated with anti-M1BP,[1],2.6%
same,percent of total protein immunoprecipitated with anti-Mod(mdg4)67.2,[2],8.5%
same,percent of total protein immunoprecipitated with anti-CP190,[3],7%

# Reference: publication PMC8263732, “M1BP cooperates with CP190 to activate transcription at TAD borders and promote chromatin insulator activity” (Nature Communications, 2021)
